The supplement of paper PMC12042874
± gives the uncertainty stated by the source.

Experiment: amyloid nucleation score (Sup35N fusion, yeast selection) (log enrichment); library NNK1; higher = more nucleation; inactive = no reads after selection
How it was run: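 In psi-negative yeast, Sup35N fusions carrying peptides of 20 random codons were induced with 100 μM copper sulfate for 24 hours. The cells then grew 7 days at 30°C on medium lacking adenine and uracil, and plasmid inserts from input and output were Illumina-sequenced, excluding sequences with under 100 input reads. Nucleation score is the DiMSum log enrichment of output over input reads, centred on the mode score of non-aggregating sequences.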

In order of rising amyloid nucleation score:
1. NWELRRVTRKWRSGDTSLSD  -2.04 ± 2.4
2. SLVLDGVSTPPIDYLNLVLV  -1.26 ± 0.76
3. NDRSFYQITKILHPRDASQN  -1.08 ± 0.55
4. GYFLPGFEMLCYNRRIWYIM  -1.03 ± 0.61
5. LPWGRTAFENFFVTMFFSKC  -0.994 ± 1.5
6. WSGTDRMCSVMTYS  -0.841 ± 0.51
7. DTINAGWSHLEARCLRFLHV  -0.795 ± 0.38
8. NPHCVSLKTRIPFVGGSKCG  -0.748 ± 1.2
9. DMEYGGKRHNNCSDLIITNC  -0.726 ± 1.1
10. WSKLYIAK  -0.69 ± 0.41
11. KPKVVNMVEGLRGFCGLLDL  -0.602 ± 0.94
12. CDGNHSRSLRLIDLGPGF  -0.558 ± 1.1
13. WYAGFTGRFRSLFFIISIFG  -0.529 ± 1
14. RKWRVCDKND  -0.491 ± 0.86
15. WVQFLDMGAVMKIWLVKCFP  -0.485 ± 1.1
16. LDFIKWAYNWCRLIVGIGGC  -0.476 ± 1.9
17. PTLLALYGG  -0.414 ± 0.61
18. CGYMLVYDAHMHRSLLCAC  -0.285 ± 0.26
19. VDNMLPFMGDYWDLFYGFLL  -0.217 ± 0.31
20. WADTPRQLGCSSSSTISCSL  -0.216 ± 0.4
21. SYPESTTRNF  -0.209 ± 0.39
22. RNWREVSYMIQVGW  -0.186 ± 0.29
23. NGFSDRKLDFHTRHMGH  -0.147 ± 0.36
24. LFLIV  -0.08 ± 0.24
25. NSASYII  -0.048 ± 0.24
26. EKVILHANCFCITMNRMLYH  -0.015 ± 0.39
27. RYMWYLVCS  0.026 ± 0.7
28. CFDNSFTFPPDG  0.066 ± 0.3
29. RHYSARQWQIWGFCDLPHSR  0.086 ± 0.66
30. VFTSAD  0.093 ± 0.39
31. NMCNLSFLQ  0.104 ± 1.1
32. AGWYASW  0.142 ± 0.74
33. FVLHCCRLRGHTSSSHWLGA  0.245 ± 0.43
34. KRVANDWEYGFGYNPTVVGR  0.295 ± 0.46
35. AESLIKHLK  0.334 ± 0.43
36. VGQLSTFCLGILIVLSVN  0.338 ± 0.18
37. LIWFVYMD  0.347 ± 0.55
38. YLMMVIRKVFVPCCNG  0.378 ± 0.21
39. WNCKLTMADGGSAKVAPLSS  0.38 ± 0.32
40. QSPISDCSGQSSCRMCQRYG  0.408 ± 0.2
41. SFREHGRSSNRP  0.423 ± 1.4
42. DGCDGCLTYAKCGYLGFY  0.424 ± 0.67
43. KVVTGLIYFWCIWCFGTLRV  0.431 ± 0.9
44. LLFSPIFLDSGPHTLWLYMF  0.491 ± 0.87
45. SFGVSNTSYWTAEKVVGYAT  0.501 ± 0.7
46. GLMWKAN  0.537 ± 0.67
47. SRNLLPSDTSHQVMYPVSTK  0.568 ± 0.28
48. SRNLCSQSWIRTATV  0.585 ± 0.56
49. MECSASYLYVWKIANTLGRM  0.637 ± 0.31
50. RGLSNA  0.664 ± 0.48
51. GHGALSCMMNFHSTGGKVKS  0.667 ± 0.68
52. VCRGGSSFLLNTKLVNT  0.675 ± 0.33
53. SGLIKVGISLRLHYGLYLRY  0.684 ± 0.88
54. FKPEKRLGATG  0.694 ± 0.45
55. TTFSEVERLWGWSVFCNLST  0.723 ± 0.66
56. ITFLRSTIPSVRTRQRLHEL  0.783 ± 0.4
57. IWYYSSAQLDCFPYNSTMQE  0.8 ± 0.93
58. LTSGLI  0.807 ± 1
59. VLIMYYGCLDDFLLRDYSLL  0.856 ± 0.67
60. VIRRLRSTYMSDMLLEGGLA  0.864 ± 0.56
61. LNRTRCLWL  0.877 ± 0.58
62. SWSPRHELPLGKLRWIWDRG  1.03 ± 0.75
63. VVIGILSEYATKTNWFCSIY  1.08 ± 0.2
64. PWNLLGKIVTFV  1.09 ± 0.94
65. VHESTSHRMWRSLI  1.15 ± 0.41
66. GYRHRYQQTKGIVTHSMYFD  1.27 ± 0.9
67. FHLVRGCIFITCKYVGRGIV  1.32 ± 0.57
68. RVRLVWSSCQGDEGFYGLCP  1.36 ± 0.18
69. VADFSL  1.44 ± 0.53
70. LGPYQTCR  1.58 ± 0.72
71. CCPDSQIIRYNIYAVVYLRM  1.92 ± 0.57
72. RMSSIKYVMWGHFAIVSTKV  1.99 ± 0.43
73. IFFSCQVGYSAIARDARWTR  2.04 ± 0.14
74. AFMYYTGATIMHLQSANGGL  2.27 ± 0.17
75. FTRGDICLYLFCELFRPVNC  2.29 ± 0.22
76. ILEVCRHRVIIIRNYLSYCA  2.8 ± 0.24
77. SLIRLCVAVTSTSNPGWPLL  3.09 ± 0.12
78. VNSSPFFMYKGVHFTWTYYS  4.51 ± 0.1
79. VLEYPSTSAARFSHRVKRK  8.434 ± 0.047

In the case of YSFRGEHSTLCLDNVVKSFQ, the amyloid nucleation score is reported as “inactive”.
For IFYIYLRGLVMIVRRSMVIR, the amyloid nucleation score was “inactive”.
For NTHSPSFGFAMIRSGDTEKF, the amyloid nucleation score was “inactive”.
In the case of SDSGPTALNVYFPGTCQGNS, the amyloid nucleation score is reported as “inactive”.
For RGVHVHRFVLLAMMKFQFGS, the amyloid nucleation score was “inactive”.
For LPGDFYGSYRN, the amyloid nucleation score was “inactive”.
